B1: Tau 151-243 (protein)
chain: SGMPGAPLLPEGPREATRQPSGTGPEDTEGGRHAPELLKHQLLGDLHQEGPPLKGAGGKERPGSKEEVDEDRDVDESSPQDSPPSKASPAQDG

Key:
Fyn SH3 [1] = target: T1, Fyn SH3 (Homo sapiens, UniProt P06241); experiment: NMR titration
Fyn SH3 [2] = target: T1, Fyn SH3; experiment: ITC

T1 sequence (P06241 79-146): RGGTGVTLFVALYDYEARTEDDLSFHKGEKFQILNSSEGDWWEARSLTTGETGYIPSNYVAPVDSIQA

Row | Binder | Kd (Fyn SH3 [1]) [µM] | Kd (Fyn SH3 [2]) [µM]
1 | QDGRPPQTAAREATS [Tau 241-255] | 327 | 
2 | PSGTGPEDTEGGRHA [Tau 170-184] | 127 | 
3 | ERPGSKEEVDEDRDV [Tau 210-224] | 163 | 
4 | B1 |  | 11

From PMC12232886 (2025)
